# Substitutions are numbered along the chain they refer to. In names and notes the source's numbering stands. Several values for one entry are separate records, joined by “and”; a condition that tells them apart may be missing. Equal entries are not always repeated.
# B1: L3-FGF21ΔH-A129C: Linker-3 conjugated to FGF21ΔH-A129C protein (Table 4; Table 5 row L3) (conjugate, UniProt Q9NSA1 29-209, looked up, variant H1* A129C)
# Fibroblast growth factor 21: PIPDSSPLLQFGGQVRQRYLYTDDAQQTEAHLEIREDGTVGGAADQSPESLLQLKALKPGVIQILGVKTSRFLCQRPDGALYGSLHFDPEACSFRELLLEDGYNVYQSEAHGLPLHLPGNKSPHRDPCPRGPARFLPLPGLPPALPEPPGILAPQPPDVGSSDPLSMVGPSQGRSPSYAS
# modifications: Linker-3 attached
# B2: L2-FGF21ΔH-A129C: Linker-2 conjugated to FGF21ΔH-A129C protein (Table 4; Table 5 row L2) (conjugate, UniProt Q9NSA1 29-209, looked up, variant H1* A129C)
# Fibroblast growth factor 21: B1 Fibroblast growth factor 21
# modifications: Linker-2 attached
# B3: L1-FGF21ΔH-A129C: Linker-1 conjugated to FGF21ΔH-A129C protein (Table 4; Table 5 row L1) (conjugate, UniProt Q9NSA1 29-209, looked up, variant H1* A129C)
# Fibroblast growth factor 21: B1 Fibroblast growth factor 21
# modifications: Linker-1 attached
# B4: L4-FGF21ΔH-A129C: Linker-4 conjugated to FGF21ΔH-A129C protein (Table 4; Table 5 row L4) (conjugate, UniProt Q9NSA1 29-209, looked up, variant H1* A129C)
# Fibroblast growth factor 21: B1 Fibroblast growth factor 21
# modifications: Linker-4 attached
# B5: FGF21ΔH-A129C: FGF21 cysteine mutant, SEQ ID NO:9 (protein, listed as Homo sapiens)
# chain: B1 Fibroblast growth factor 21
# B6: FGF21ΔH-K56-K59R-K69R-K122R: FGF21 lysine mutant, SEQ ID NO:18 (protein, listed as Homo sapiens)
# chain: B1 Fibroblast growth factor 21 with K58R, K68R, K121R, C128A, L145P, P146L
# B7: FGF21ΔH-K56R-K59R-K69-K122R: FGF21 lysine mutant, SEQ ID NO:20 (protein, listed as Homo sapiens)
# chain: B1 Fibroblast growth factor 21 with K55R, K58R, K121R, C128A, L145P, P146L
# B8: FGF21ΔH-Knull-S181K: FGF21 lysine-null mutant with S181K, SEQ ID NO:24 (protein, listed as Homo sapiens)
# chain: B1 Fibroblast growth factor 21 with K55R, K58R, K68R, K121R, C128A, L145P, P146L, S180K
# B9: FGF21ΔH-K56R-K59-K69R-K122R: FGF21 lysine mutant, SEQ ID NO:19 (protein, listed as Homo sapiens)
# chain: B1 Fibroblast growth factor 21 with K55R, K68R, K121R, C128A, L145P, P146L
# B10: FGF21ΔH-H125C: FGF21 cysteine mutant, SEQ ID NO:6 (protein, listed as Homo sapiens)
# chain: B1 Fibroblast growth factor 21 with H124C, C128A
# B11: FGF21ΔH-K56-K59R-K69R-K122: FGF21 lysine mutant, SEQ ID NO:21 (protein, listed as Homo sapiens)
# chain: B1 Fibroblast growth factor 21 with K55R, K58R, K68R, C128A, L145P, P146L
# B12: FGF21ΔH-Knull-P2: FGF21 lysine-null mutant, SEQ ID NO:22 (protein, listed as Homo sapiens)
# chain: B1 Fibroblast growth factor 21 with K55R, K58R, K68R, K121R, C128A, L145P, P146L
# B13: FGF21ΔH-Knull-H1K: FGF21 lysine-null mutant with H1K, SEQ ID NO:23 (protein, listed as Homo sapiens)
# chain: KPIPDSSPLLQFGGQVRQRYLYTDDAQQTEAHLEIREDGTVGGAADQSPESLLQLRALRPGVIQILGVRTSRFLCQRPDGALYGSLHFDPEACSFRELLLEDGYNVYQSEAHGLPLHLPGNRSPHRDPAPRGPARFLPLPGLPPALPEPPGILAPQPPDVGSSDPLSMVGPSQGRSPSYAS
# B14: FGF21ΔH-L86C: FGF21 cysteine mutant, SEQ ID NO:14 (protein, listed as Homo sapiens)
# chain: B1 Fibroblast growth factor 21 with L85C, C128A, L145P, P146L
# Tested on: not listed separately
# Experiment: Stability of linkers L1-L4 conjugated to FGF21 (LC-MS)
# Type: physicochemical
# Settings: +4° C., 0 hrs
# Method: The following experiment was performed to investigate the chemical stability over 2 weeks of the four linkers upon conjugation to FGF21: each linker was conjugated to FGF21, placed at +4° C. storage conditions, and aliquots were removed and quenched by freezing at specific time points, and linker stability was monitored by LCMS analysis.
# The four linkers were dissolved in DMSO from lyophilized stock material. […] L1 was reacted with protein for 30 mins; L2, L3 and L4 were reacted for 2 hrs. The conjugation reaction was quenched by removal of excess linkers through size-exclusion resin. Conjugated FGF21ΔH-A129C protein was placed at +4° C. for stability storage. […] Analysis of linker stability was performed by LC-MS analysis to determine the relative amount of unconjugated protein, protein+linker conjugation, and single and double hydrolysis events of the conjugated protein+linker.
# Linker hydrolysis is the critical analytical variable in this experiment. Hydrolysis was monitored by observing the subsequent addition of H2O to the FGF21-linker complex. A single addition of H2O, +(1) H2O, likely indicates the hydrolysis of the active AZD group that is present on all 4 linkers. The addition of a second H2O molecule, +(2) H2O, is a strong indicator of hydrolysis (eg—chemical instability) in the linker. L1 is particularly susceptible because of the presence of a maleimide functional group.
Molecule,1 linker (protein+linker) [%],+(1) H2O [%],+(2) H2O [%]
B1,45,30,6
B2,45,27,6
B3,49,30,8
B4,46,28,6

# Same assay, conditions: +4° C., 0 hrs; % of total measured protein
row,Molecule,0 linker (unconjugated protein) [%]
1,B1,19
2,B2,22
3,B3,13
4,B4,20

# Same assay, conditions: +4° C., 24 hrs
Molecule,0 linker (unconjugated protein) [%],1 linker (protein+linker) [%],+(1) H2O [%],+(2) H2O [%]
B1,18,47,27,8
B2,23,43,26,8
B3,14,41,34,11
B4,20,46,27,7

# Same assay, conditions: +4° C., 72 hrs
Molecule,0 linker (unconjugated protein) [%],1 linker (protein+linker) [%],+(1) H2O [%],+(2) H2O [%]
B1,19,43,30,8
B2,24,37,32,8
B3,14,40,35,11
B4,21,42,30,7

# Same assay, conditions: +4° C., 168 hrs
Molecule,0 linker (unconjugated protein) [%],1 linker (protein+linker) [%],+(1) H2O [%],+(2) H2O [%]
B1,19,43,29,8
B2,24,40,29,7
B3,10,33,40,18
B4,21,41,32,6

# Same assay, conditions: +4° C., 336 hrs
Molecule,0 linker (unconjugated protein) [%],1 linker (protein+linker) [%],+(1) H2O [%]
B1,20,43,29
B2,26,38,28
B3,12,28,41
B4,22,41,31

# Same assay, conditions: +4° C., 336 hrs (2 weeks)
row,Molecule,+(2) H2O [%]
1,B1,8
2,B2,8
3,B3,18
4,B4,6

# Tested on: Glut1 mRNA expression in differentiated 3T3-L1 adipocytes
# Experiment: Glut1 Taqman assay
# Type: cell-based
# Settings: 3T3-L1 adipocytes, 6 hrs, Taqman quantitative real-time PCR; read-out: Glut1 RNA expression EC50
# Method: Differentiated 3T3-L1 adipocytes were used to measure the Glut1 mRNA expression by qPCR method. Overnight serum starved day 10-14 differentiated 3T3-L1 adipocytes were treated with compounds for 6 hrs. Total RNA was extracted from these cells, and Glut1 and GAPDH mRNA expression was measured using a Quantitect Probe RT-PCR kit and running a quantitative real time PCR reaction in a Taqman machine (Applied Biosystems®). The bioactivity of the compounds was determined by a fold change in Glut1 mRNA levels normalized by the GAPDH mRNA levels from each sample. EC50 values as measurements of the potency of the compounds were obtained from the dose response curves in the assay.
# 3T3-L1 adipocytes were seeded at day 8 in 24-well tissue culture plates (Falcon®, Cat#353047), and incubated in DMEM complete medium (10% FBS, 2 mM L-glutamine, 1% P/S) at 37° C., 5% CO2. […] The medium was aspirated, and then RNA extracted from the cells using the RNeasy mini Kit according to the manufacturer's instructions. RNA was measured at A260 nm using the Spectramax® Plus spectrophotometer.
row,Molecule,EC50 [nM]
1,B5,16

# Same assay, conditions: 6 hrs
row,Molecule,Glut1 induction in 3T3-L1 adipocytes
1,B5,dose-dependent Glut1 induction

# Same assay, conditions: differentiated 3T3-L1 adipocytes, 6 hrs; read-out: EC50 in Glut1 Taqman assay
row,Molecule,EC50
1,B6,0.9 nM
2,B5,1.4 nM
3,B7,1.3 nM
4,B8,7.5 nM
5,B9,0.6 nM
6,B10,1.2 nM
7,B11,2.6 nM
8,B12,1.2 nM
9,B13,6.4 nM and 4.3 nM

# Tested on: not given
# Experiment: not given
# Set-up: species or system Swiss-Webster mice
# Settings: mouse, in vivo, iv
# Method: The PK of FGF21 antibody conjugates were examined in mice after IV or SC administration. […] Antibody conjugates concentrations in serum were determined using an ELISA which captured the FGF21 portion of the antibody conjugates through a monoclonal anti-hFGF21 antibody bound to a 96-well plate. FGF21 antibody conjugates bound to the plate were detected through an anti-hFc monoclonal antibody, and concentrations were determined using a standard curve of the PK dosing solution diluted into serum-containing assay buffer. SC bioavailability was calculated as the ratio of the area-under the curve (AUC) of the SC serum concentration profile divided by the AUC of the IV serum concentration profile.
row,Molecule,IV half-life [h]
1,B13,16

# Same assay, conditions: mouse, in vivo, sc
Molecule,SC bioavailability [%],SC half-life [h]
B13,51,11

# Tested on: Differentiated 3T3-L1 adipocytes
# Experiment: Glucose uptake assay
# Type: cell-based
# Settings: 3T3-L1 adipocytes, 24 hrs
# Method: Differentiated 3T3-L1 adipocytes were treated with compounds in the absence of serum for 24 hrs. Cells were then incubated with ^14C-2-deoxyglucose for 1 hr and glucose uptake into the cells was quantitated in Wallac 1450 MicroBeta (Trilux) instrument. Glucose uptake was expressed in counts per min (CPM). EC50 values as measurements of the potency of the compounds were obtained from the dose response curves in the assay.
row,Molecule,EC50 [nM]
1,B6,5.5
2,B7,5.2
3,B9,0.9
4,B11,1.7

# Same assay, conditions: unconjugated protein; n in brackets
row,Molecule,EC50 [nM]
1,B14,62
